{"source": "paper PMC6430685", "about": "(Nature chemical biology, 2019)", "molecular_target": "Human full-length (1-192) wild type BAX (human, UniProt Q07812 1-192)", "sequence (Q07812 whole entry)": "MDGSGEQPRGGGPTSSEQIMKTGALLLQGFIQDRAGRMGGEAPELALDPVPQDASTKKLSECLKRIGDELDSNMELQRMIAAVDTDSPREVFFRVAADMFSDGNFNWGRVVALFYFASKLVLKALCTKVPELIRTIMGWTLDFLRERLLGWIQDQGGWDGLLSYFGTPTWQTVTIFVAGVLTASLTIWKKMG", "assay": "fluorescence polarisation", "note": "No end group written: not given here. *: point of attachment. FITC = O=C1OC2(c3ccc(O)cc3Oc3cc(O)ccc32)c2ccc(NC(=S)*)cc21; Ahx = NCCCCCC(=O)O", "data": [{"binder": "{FITC-Ahx}-CEALKKALRRHRFLWQRRQRA", "note": "[vMIA peptide, FITC-Ahx-CEALKKALRRHRFLWQRRQRA]", "values": [{"measurement": "binding result", "result": "binds"}]}]}
